The experiment has as its target T1, endogenous iRhom2 on THP-1 cells (Homo sapiens, UniProt Q6PJF5).
T1 construct: THP-1 cells, a human monocytic cell line endogenously expressing both iRhom2 and iRhom1; host or cells: THP-1
T1 sequence (Q6PJF5 1-856): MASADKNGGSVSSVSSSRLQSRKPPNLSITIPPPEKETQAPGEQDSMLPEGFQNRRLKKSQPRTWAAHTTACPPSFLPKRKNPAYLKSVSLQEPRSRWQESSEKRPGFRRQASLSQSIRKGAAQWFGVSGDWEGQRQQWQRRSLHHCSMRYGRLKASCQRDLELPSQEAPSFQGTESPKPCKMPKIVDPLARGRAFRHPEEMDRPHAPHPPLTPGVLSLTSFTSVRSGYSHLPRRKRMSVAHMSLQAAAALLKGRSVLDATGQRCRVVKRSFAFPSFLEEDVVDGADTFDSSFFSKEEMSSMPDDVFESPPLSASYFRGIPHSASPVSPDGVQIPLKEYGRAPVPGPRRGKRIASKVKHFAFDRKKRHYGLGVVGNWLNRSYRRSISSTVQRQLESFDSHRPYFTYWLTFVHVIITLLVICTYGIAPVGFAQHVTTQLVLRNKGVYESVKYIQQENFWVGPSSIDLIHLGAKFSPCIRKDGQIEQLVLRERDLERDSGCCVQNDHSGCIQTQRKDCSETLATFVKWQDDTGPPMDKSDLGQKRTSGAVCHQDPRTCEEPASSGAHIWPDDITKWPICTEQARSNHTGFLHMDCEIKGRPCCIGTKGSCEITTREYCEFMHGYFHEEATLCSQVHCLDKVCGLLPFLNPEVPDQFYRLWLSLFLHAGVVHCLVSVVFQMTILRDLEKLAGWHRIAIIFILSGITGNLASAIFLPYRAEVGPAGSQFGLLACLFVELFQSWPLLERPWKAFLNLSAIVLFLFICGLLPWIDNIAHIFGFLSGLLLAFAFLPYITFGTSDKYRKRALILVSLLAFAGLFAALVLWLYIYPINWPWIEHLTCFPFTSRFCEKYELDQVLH
Description: FACS binding to THP-1 cells endogenously expressing iRhom2 and iRhom1. The settings on record: antibody at 3 μg/ml. The procedure: In this study, binding specificity analyses of the humanized antibody 42-B-02 as a representative example of the antibodies of the invention in cell lines endogenously expressing iRhom2 were performed. The studies were conducted on RPMI-8226 cells, a human B lymphocytic cell line endogenously expressing iRhom2 but being endogenously negative for iRhom1, on THP-1 cells, a human monocytic cell line endogenously expressing both iRhom2 and iRhom1 and on RH-30 cells, a human […] cell line endogenously negative for iRhom2 but endogenously expressing iRhom1.
In brief, human RPMI-8226 cells (Deutsche Sammlung von Mikroorganismen und Zellkulturen, Germany), THP-1 cells (American Type Culture Collection, USA) and RH-30 cells (Deutsche Sammlung von Mikroorganismen und Zellkulturen, Germany) were harvested with 10 mM EDTA in PBS, washed and resuspended in FACS buffer (PBS, 3% FBS, 0.05% sodium azide), and seeded in Nunc U-bottom 96-well plates (Thermo Fisher Scientific, USA) at approximately 2×10^5 cells per well. In order to pellet cells and remove supernatants, the plates were centrifuged at 1,500 rpm and 4° C. for 3 minutes. […] Finally, cells were resuspended in 150 μl per well of FACS buffer and analyzed using a BD Accuri™ C6 Plus flow cytometer (Becton Dickinson, Germany).
On the technique in general: A flow cytometer gives signals particle by particle.

B1: 42-B-02: humanized antibody binding human iRhom2; HCVD SEQ ID NO 33, LCVD SEQ ID NO 37 (antibody, V domains shown)
VH: QVTLRESGPALVKPTQTLTLTCTFSGFSLSTFGRGVGWIRQPPGKALEWLAHIWWDDEKYYNSALKSRLTISKDTSKNQVVLTITNMDPVDTATYYCARIQNYGSNYWYFDVWGQGTLVTVSS
VL: AIQLTQSPSSLSASVGDRVTITCRASSRISYMFWYQQKPGKAPKVLIYDTSNLASGVPSRFSGSGSGTDYTLTISSLQPEDFATYYCQQWNSYPLTFGQGTKLEIK
modifications: antibody sequences
Regarding B1, the “binding to THP-1 cells (endogenously expressing iRhom2 and iRhom1)” value is on record as “strong binding”.

The values above are taken from patent publication US12404345B2, “Humanized antibodies against iRHOM2” (SCIRHOM GMBH, priority 2021, dated 2025).
